Assay results as given in US20150361464A1, “METHODS, REAGENTS AND CELLS FOR BIOSYNTHESIZING COMPOUNDS” (INVISTA North America S.á r.l., priority 2014, published 2015).

Key:
Format in all cases: biochemical
[1] = ω-transaminase enzyme activity assay (cadaverine to 5-aminopentanal), cell free extract
Protocol: A nucleotide sequence encoding an N-terminal His-tag was added to the Chromobacterium violaceum, Pseudomonas aeruginosa, Pseudomonas syringae, and Escherichia coli genes encoding the ω-transaminases of SEQ ID NOs: 8 to 10 and 12, respectively (see, FIG. 10) such that N-terminal HIS tagged ω-transaminases could be produced. The modified genes were cloned into a pET21a expression vector under the T7 promoter. Each expression vector was transformed into a BL21[DE3] E. coli host. Each resulting recombinant E. coli strain were cultivated at 37° C. in a 250 mL shake flask culture containing 50 mL LB media and antibiotic selection pressure, with shaking at 230 rpm. Each culture was induced overnight at 16° C. using 1 mM IPTG.
(§1) The pellet from each induced shake flask culture was harvested via centrifugation. Each pellet was resuspended and lysed via sonication. The cell debris was separated from the supernatant via centrifugation and the cell free extract was used immediately in enzyme activity assays.
Enzyme activity assays in the reverse direction (i.e., cadaverine to 5-aminopentanal) were performed in a buffer composed of a final concentration of 50 mM HEPES buffer (pH=7.5), 10 mM cadaverine, 10 mM pyruvate, and 100 μM pyridoxyl 5′ phosphate. […] The formation of L-alanine was quantified via RP-HPLC.

[2] = carboxylate reductase enzyme activity assay (5-hydroxypentanoate to 5-hydroxypentanal), NADPH consumption at 340 nm; settings: purified enzyme enhanced by the gene product of sfp; 1 mM ATP, 1 mM NADPH, pH 7.5, room temperature, 20 minutes; against the empty vector control; FIG. 14
Protocol: A nucleotide sequence encoding a His-tag was added to the genes from Mycobacterium marinum, Mycobacterium smegmatis, Segniliparus rugosus, Mycobacterium massiliense, and Segniliparus rotundus that encode the carboxylate reductases of SEQ ID NOs: 2-4, 6 and 7, respectively (GenBank Accession Nos. ACC40567.1, ABK71854.1, EFV11917.1, EIV11143.1, and ADG98140.1, respectively) (see FIG. 10) such that N-terminal HIS tagged carboxylate reductases could be produced. Each of the modified genes was cloned into a pET Duet expression vector alongside a sfp gene encoding a His-tagged phosphopantetheine transferase from Bacillus subtilis, both under control of the T7 promoter. Each expression vector was transformed into a BL21[DE3] E. coli host along with the expression vectors from Example 3. Each resulting recombinant E. coli strain was cultivated at 37° C. in a 250 mL shake flask culture containing 50 mL LB media and antibiotic selection pressure, with shaking at 230 rpm. Each culture was induced overnight at 37° C. using an auto-induction media. […]
Enzyme activity (i.e., 5-hydroxypentanoate to 5-hydroxypentanal) assays were performed in triplicate in a buffer composed of a final concentration of 50 mM HEPES buffer (pH=7.5), 2 mM 5-hydroxypentanal, 10 mM MgCl2, 1 mM ATP, and 1 mM NADPH. […] The consumption of NADPH was monitored by absorbance at 340 nm. […]

[3] = ω-transaminase enzyme activity assay, forward direction (glutarate semialdehyde to 5-aminopentanoate), cell free extract
Protocol: A nucleotide sequence encoding an N-terminal His-tag was added to the genes from Chromobacterium violaceum and Rhodobacter sphaeroides encoding the ω-transaminases of SEQ ID NOs: 8 and 10 respectively (see FIG. 10) such that N-terminal HIS tagged ω-transaminases could be produced. Each of the resulting modified genes was cloned into a pET21a expression vector under control of the T7 promoter and each expression vector was transformed into a BL21[DE3] E. coli host. The resulting recombinant E. coli strains were cultivated at 37° C. in a 250 mL shake flask culture containing 50 mL LB media and antibiotic selection pressure, with shaking at 230 rpm. Each culture was induced overnight at 16° C. using 1 mM IPTG.
as §1
Enzyme activity in the forward direction (i.e., glutarate semialdehyde to 5-aminopentanoate) was confirmed for the transaminase of SEQ ID NO: 10. Enzyme activity assays were performed in a buffer composed of a final concentration of 50 mM HEPES buffer (pH=7.5), 10 mM glutarate semialdehyde, 10 mM L-alanine and 100 μM pyridoxyl 5′ phosphate. Each enzyme activity assay reaction was initiated by adding a cell free extract of the ω-transaminase gene product or the empty vector control to the assay buffer containing the glutarate semialdehyde and incubated at 25° C. for 4 hours, with shaking at 250 rpm. The formation of pyruvate was quantified via RP-HPLC.

B1: SEQ ID NO: 12: Escherichia coli ω-transaminase, N-terminal HIS tagged, cell free extract (protein, listed as Escherichia coli)
chain: MNRLPSSASALACSAHALNLIEKRTLDHEEMKALNREVIEYFKEHVNPGFLEYRKSVTAGGDYGAVEWQAGSLNTLVDTQGQEFIDCLGGFGIFNVGHRNPVVVSAVQNQLAKQPLHSQELLDPLRAMLAKTLAALTPGKLKYSFFCNSGTESVEAALKLAKAYQSPRGKFTFIATSGAFHGKSLGALSATAKSTFRKPFMPLLPGFRHVPFGNIEAMRTALNECKKTGDDVAAVILEPIQGEGGVILPPPGYLTAVRKLCDEFGALMILDEVQTGMGRTGKMFACEHENVQPDILCLAKALGGGVMPIGATIATEEVFSVLFDNPFLHTTTFGGNPLACAAALATINVLLEQNLPAQAEQKGDMLLDGFRQLAREYPDLVQEARGKGMLMAIEFVDNEIGYNFASEMFRQRVLVAGTLNNAKTIRIEPPLTLTIEQCELVIKAARKALAAMRVSVEEA
modifications: N-terminal His tag
notes: Escherichia coli ω-transaminase, N-terminal HIS tagged, cell free extract
acceptance of cadaverine as substrate (formation of L-alanine from pyruvate, RP-HPLC) ([1]; 10 mM cadaverine, 10 mM pyruvate, pH 7.5, 25° C., 4 hours, against the empty vector control, FIG. 11): accepted cadaverine as substrate
acceptance of 5-aminopentanal as substrate forming cadaverine, concluded from reversibility of the ω-transaminase activity ([1]; conclusion given reversibility (Example 1)): accept 5-aminopentanal as substrate and form cadaverine

B2: SEQ ID NO: 7: Segniliparus rotundus carboxylate reductase, N-terminal HIS tagged (protein, listed as Segniliparus rotundus)
chain: MTQSHTQGPQASAAHSRLARRAAELLATDPQAAATLPDPEVVRQATRPGLRLAERVDAILSGYADRPALGQRSFQTVKDPITGRSSVELLPTFDTITYRELRERATAIASDLAHHPQAPAKPGDFLASIGFISVDYVAIDIAGVFAGLTAVPLQTGATLATLTAITAETAPTLFAASIEHLPTAVDAVLATPSVRRLLVFDYRAGSDEDREAVEAAKRKIADAGSSVLVDVLDEVIARGKSAPKAPLPPATDAGDDSLSLLIYTSGSTGTPKGAMYPERNVAHFWGGVWAAAFDEDAAPPVPAINITFLPLSHVASRLSLMPTLARGGLMHFVAKSDLSTLFEDLKLARPTNLFLVPRVVEMLYQHYQSELDRRGVQDGTREAEAVKDDLRTGLLGGRILTAGFGSAPLSAELAGFIESLLQIHLVDGYGSTEAGPVWRDGYLVKPPVTDYKLIDVPELGYFSTDSPHPRGELAIKTQTILPGYYKRPETTAEVFDEDGFYLTGDVVAQIGPEQFAYVDRRKNVLKLSQGEFVTLAKLEAAYSSSPLVRQLFVYGSSERSYLLAVIVPTPDALKKFGVGEAAKAALGESLQKIARDEGLQSYEVPRDFIIETDPFTVENGLLSDARKSLRPKLKEHYGERLEAMYKELADGQANELRDIRRGVQQRPTLETVRRAAAAMLGASAAEIKPDAHFTDLGGDSLSALTFSNFLHDLFEVDVPVGVIVSAANTLGSVAEHIDAQLAGGRARPTFATVHGKGSTTIKASDLTLDKFIDEQTLEAAKHLPKPADPPRTVLLTGANGWLGRFLALEWLERLAPAGGKLITIVRGKDAAQAKARLDAAYESGDPKLAGHYQDLAATTLEVLAGDFSEPRLGLDEATWNRLADEVDFISHPGALVNHVLPYNQLFGPNVAGVAEIIKLAITTRIKPVTYLSTVAVAAGVEPSALDEDGDIRTVSAERSVDEGYANGYGNSKWGGEVLLREAHDRTGLPVRVFRSDMILAHQKYTGQVNATDQFTRLVQSLLATGLAPKSFYELDAQGNRQRAHYDGIPVDFTAESITTLGGDGLEGYRSYNVFNPHRDGVGLDEFVDWLIEAGHPITRIDDYDQWLSRFETSLRGLPESKRQASVLPLLHAFARPGPAVDGSPFRNTVFRTDVQKAKIGAEHDIPHLGKALVLKYADDIKQLGLL
modifications: N-terminal His tag
notes: Segniliparus rotundus carboxylate reductase, N-terminal HIS tagged
acceptance of 5-hydroxypentanoate as substrate (consumption of NADPH, absorbance at 340 nm) [2]: accepted 5-hydroxypentanoate as substrate

B3: SEQ ID NO: 6: Mycobacterium massiliense carboxylate reductase, N-terminal HIS tagged (protein)
chain: MTNETNPQQEQLSRRIESLRESDPQFRAAQPDPAVAEQVLRPGLHLSEAIAALMTGYAERPALGERARELVIDQDGRTTLRLLPRFDTTTYGELWSRTTSVAAAWHHDATHPVKAGDLVATLGFTSIDYTVLDLAIMILGGVAVPLQTSAPASQWTTILAEAEPNTLAVSIELIGAAMESVRATPSIKQVVVFDYTPEVDDQREAFEAASTQLAGTGIALETLDAVIARGAALPAAPLYAPSAGDDPLALLIYTSGSTGAPKGAMHSENIVRRWWIREDVMAGTENLPMIGLNFMPMSHIMGRGTLTSTLSTGGTGYFAASSDMSTLFEDMELIRPTALALVPRVCDMVFQRFQTEVDRRLASGDTASAEAVAAEVKADIRDNLFGGRVSAVMVGSAPLSEELGEFIESCFELNLTDGYGSTEAGMVFRDGIVQRPPVIDYKLVDVPELGYFSTDKPHPRGELLLKTDGMFLGYYKRPEVTASVFDADGFYMTGDIVAELAHDNIEIIDRRNNVLKLSQGEFVAVATLEAEYANSPVVHQIYVYGSSERSYLLAVVVPTPEAVAAAKGDAAALKTTIADSLQDIAKEIQLQSYEVPRDFIIEPQPFTQGNGLLTGIAKLARPNLKAHYGPRLEQMYAEIAEQQAAELRALHGVDPDKPALETVLKAAQALLGVSSAELAADAHFTDLGGDSLSALSFSDLLRDIFAVEVPVGVIVSAANDLGGVAKFVDEQRHSGGTRPTAETVHGAGHTEIRAADLTLDKFIDEATLHAAPSLPKAAGIPHTVLLTGSNGYLGHYLALEWLERLDKTDGKLIVIVRGKNAEAAYGRLEEAFDTGDTELLAHFRSLADKHLEVLAGDIGDPNLGLDADTWQRLADTVDVIVHPAALVNHVLPYNQLFGPNVVGTAEIIKLAITTKIKPVTYLSTVAVAAYVDPTTFDEESDIRLISAVRPIDDGYANGYGNAKWAGEVLLREAHDLCGLPVAVFRSDMILAHSRYTGQLNVPDQFTRLILSLIATGIAPGSFYQAQTTGERPLAHYDGLPGDFTAEAITTLGTQVPEGSEGFVTYDCVNPHADGISLDNFVDWLIEAGYPIARIDNYTEWFTRFDTAIRGLSEKQKQHSLLPLLHAFEQPSAAENHGVVPAKRFQHAVQAAGIGPVGQDGTTDIPHLSRRLIVKYAKDLEQLGLL
modifications: N-terminal His tag; Mycobacterium massiliense
notes: Mycobacterium massiliense carboxylate reductase, N-terminal HIS tagged
acceptance of 5-hydroxypentanoate as substrate (consumption of NADPH, absorbance at 340 nm) [2]: accepted 5-hydroxypentanoate as substrate

B4: SEQ ID NO: 10: Pseudomonas syringae ω-transaminase (b222 says Rhodobacter sphaeroides), N-terminal HIS tagged, cell free extract (protein, listed as Pseudomonas syringae)
chain: MSANNPQTLEWQALSSEHHLAPFSDYKQLKEKGPRIITRAEGVYLWDSEGNKILDGMSGLWCVAIGYGREELADAASKQMRELPYYNLFFQTAHPPVLELAKAISDIAPEGMNHVFFTGSGSEGNDTMLRMVRHYWALKGQPNKKTIISRVNGYHGSTVAGASLGGMTYMHEQGDLPIPGVVHIPQPYWFGEGGDMTPDEFGIWAAEQLEKKILELGVENVGAFIAEPIQGAGGVIVPPDSYWPKIKEILSRYDILFAADEVICGFGRTSEWFGSDFYGLRPDMMTIAKGLTSGYVPMGGLIVRDEIVAVLNEGGDFNHGFTYSGHPVAAAVALENIRILREEKIVERVRSETAPYLQKRLRELSDHPLVGEVRGVGLLGAIELVKDKTTRERYTDKGAGMICRTFCFDNGLIMRAVGDTMIIAPPLVISFAQIDELVEKARTCLDLTLAVLQG
modifications: N-terminal His tag
acceptance of glutarate semialdehyde as substrate (formation of pyruvate from L-alanine, RP-HPLC) ([3]; 10 mM glutarate semialdehyde, 10 mM L-alanine, pH 7.5, 25° C., 4 hours, against the empty vector control, FIG. 16): accepted glutarate semialdehyde as substrate
acceptance of glutarate semialdehyde as substrate and synthesis of 5-aminopentanoate, concluded from reversibility of the ω-transaminase activity ([3]; conclusion from reverse and forward direction assays): accepted glutarate semialdehyde as substrate and synthesized 5-aminopentanoate
